The nature of assay [1]: Weight loss effect in AMLN diet-induced obese mice. Format: in vivo. The following applies: 351 ug/kg, Q2D, subcutaneously, 2 weeks, vs. excipient control, p<0.001 one-way ANOVA, FIG. 1. The method, then: In order to confirm the weight loss effect of each of the three triple agonists of SEQ ID NO: 1, SEQ ID NO: 2, and SEQ ID NO: 4 prepared in the Example above, an AMLN (amylin) mouse model, known as an obesity model, was used. AMLN diet-induced mice were divided into an excipient control group and groups administered with three types of triple agonists (351 ug/kg, Q2D, subcutaneously), and the administration was repeated for 2 weeks.
After repeated administration for 2 weeks, the body weight was measured, and the change in body weight relative to the body weight immediately before administration (DO) was measured to evaluate weight loss effect.

Another assay deals with human GLP-1 receptor (human, UniProt P43220 24-463). As to the kind of experiment: cell-based or functional assay.
Another assay addresses human GCG receptor (human, UniProt P47871 26-477). As to the kind of experiment: cell-based or functional assay.
Another assay concerns the target T1, human GIP receptor (human, UniProt P48546 22-466).
T1 sequence (looked up): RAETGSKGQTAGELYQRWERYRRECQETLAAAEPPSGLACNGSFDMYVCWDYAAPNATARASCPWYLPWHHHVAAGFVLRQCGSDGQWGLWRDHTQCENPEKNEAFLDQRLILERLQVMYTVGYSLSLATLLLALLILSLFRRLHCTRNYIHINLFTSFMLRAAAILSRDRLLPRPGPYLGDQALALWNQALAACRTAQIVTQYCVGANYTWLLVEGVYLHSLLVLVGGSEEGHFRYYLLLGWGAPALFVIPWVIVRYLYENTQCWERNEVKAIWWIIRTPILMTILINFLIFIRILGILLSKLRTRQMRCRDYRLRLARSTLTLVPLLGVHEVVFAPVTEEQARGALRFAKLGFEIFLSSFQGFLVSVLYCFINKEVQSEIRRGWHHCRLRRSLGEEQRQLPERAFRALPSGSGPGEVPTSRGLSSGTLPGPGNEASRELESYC
As to the kind of experiment: cell-based or functional assay.

*1 amine or outer side, *2 acyl side, *3 side chain or, on linkers, in order; H or OH if unused. Bridges are numbered along the chain shown (N, C = ends). Where no end group is shown, it is not given here. Side-chain parts run from the residue outwards. [ ]: non-standard residue; d: D form. The star is where a group is joined. C20 diacid = O=C(O)CCCCCCCCCCCCCCCCCCC(=O)*; C18 diacid = O=C(O)CCCCCCCCCCCCCCCCC(=O)*; γGlu = O=C(O)[C@H](CCC(=O)[*:2])N[*:1]; AEEA = NCCOCCOCC(=O)O; Aib = CC(C)(N)C(=O)O

Chain of human GCG receptor (P47871 26-477): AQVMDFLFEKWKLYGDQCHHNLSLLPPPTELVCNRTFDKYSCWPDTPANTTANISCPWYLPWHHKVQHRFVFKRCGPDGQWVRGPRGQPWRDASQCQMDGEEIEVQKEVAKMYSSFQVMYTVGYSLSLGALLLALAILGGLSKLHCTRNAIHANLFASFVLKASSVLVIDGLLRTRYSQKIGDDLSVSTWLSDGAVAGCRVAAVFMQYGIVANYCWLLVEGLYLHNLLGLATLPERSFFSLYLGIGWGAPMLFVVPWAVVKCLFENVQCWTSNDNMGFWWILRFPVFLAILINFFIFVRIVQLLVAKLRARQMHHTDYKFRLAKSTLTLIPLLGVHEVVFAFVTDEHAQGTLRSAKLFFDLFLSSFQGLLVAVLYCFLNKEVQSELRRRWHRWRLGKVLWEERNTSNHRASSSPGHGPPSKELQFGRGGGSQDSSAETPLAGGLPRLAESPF

Take “Y-Aib-QGTFTSDYSK(1)YLDEKAAKEFVQWLLDHHPSSGQPPPS (Y[Aib]QGTFTSDYSK([AEEA-AEEA-γGlu-C20 diacid])YLDEKAAKEFVQWLLDHHPSSGQPPPS-NH2; lactam 16-20; N-terminus assumed; SMILES CC(C)C[C@H](NC(=O)[C@H](Cc1ccc(O)cc1)NC(=O)[C@H](CCCCNC(=O)COCCOCCNC(=O)COCCOCCNC(=O)CC[C@H](NC(=O)CCCCCCCCCCCCCCCCCCC(=O)O)C(=O)O)NC(=O)[C@H](CO)NC(=O)[C@H](Cc1ccc(O)cc1)NC(=O)[C@H](CC(=O)O)NC(=O)[C@H](CO)NC(=O)[C@@H](NC(=O)[C@H](Cc1ccccc1)NC(=O)[C@@H](NC(=O)CNC(=O)[C@H](CCC(N)=O)NC(=O)C(C)(C)NC(=O)[C@@H](N)Cc1ccc(O)cc1)[C@@H](C)O)[C@@H](C)O)C(=O)N[C@@H](CC(=O)O)C(=O)N[C@H]1CCC(=O)NCCCC[C@@H](C(=O)N[C@@H](CCC(=O)O)C(=O)N[C@@H](Cc2ccccc2)C(=O)N[C@H](C(=O)N[C@@H](CCC(N)=O)C(=O)N[C@@H](Cc2c[nH]c3ccccc23)C(=O)N[C@@H](CC(C)C)C(=O)N[C@@H](CC(C)C)C(=O)N[C@@H](CC(=O)O)C(=O)N[C@@H](Cc2c[nH]cn2)C(=O)N[C@@H](Cc2c[nH]cn2)C(=O)N2CCC[C@H]2C(=O)N[C@@H](CO)C(=O)N[C@@H](CO)C(=O)NCC(=O)N[C@@H](CCC(N)=O)C(=O)N2CCC[C@H]2C(=O)N2CCC[C@H]2C(=O)N2CCC[C@H]2C(=O)N[C@@H](CO)C(N)=O)C(C)C)NC(=O)[C@H](C)NC(=O)[C@H](C)NC(=O)[C@H](CCCCN)NC1=O) [SEQ ID NO: 1, acylated triple agonist peptide, K(1) at position 12, lactam bridge E16-K20, C-terminus amidated]”: in assay [1], the “weight loss efficacy (change in body weight relative to immediately before administration)” value was “significant weight loss efficacy”.

B1: triple agonist of SEQ ID NO: 3 (peptide)
peptide: Y[Aib]QGTFTSDYSK([AEEA-AEEA-γGlu-C20 diacid])YLDEKAAKDFVQWLLDQHPSSGQPPPS-NH2
modifications: lactam 16-20; N-terminus assumed
SMILES: CC(C)C[C@H](NC(=O)[C@H](Cc1ccc(O)cc1)NC(=O)[C@H](CCCCNC(=O)COCCOCCNC(=O)COCCOCCNC(=O)CC[C@H](NC(=O)CCCCCCCCCCCCCCCCCCC(=O)O)C(=O)O)NC(=O)[C@H](CO)NC(=O)[C@H](Cc1ccc(O)cc1)NC(=O)[C@H](CC(=O)O)NC(=O)[C@H](CO)NC(=O)[C@@H](NC(=O)[C@H](Cc1ccccc1)NC(=O)[C@@H](NC(=O)CNC(=O)[C@H](CCC(N)=O)NC(=O)C(C)(C)NC(=O)[C@@H](N)Cc1ccc(O)cc1)[C@@H](C)O)[C@@H](C)O)C(=O)N[C@@H](CC(=O)O)C(=O)N[C@H]1CCC(=O)NCCCC[C@@H](C(=O)N[C@@H](CC(=O)O)C(=O)N[C@@H](Cc2ccccc2)C(=O)N[C@H](C(=O)N[C@@H](CCC(N)=O)C(=O)N[C@@H](Cc2c[nH]c3ccccc23)C(=O)N[C@@H](CC(C)C)C(=O)N[C@@H](CC(C)C)C(=O)N[C@@H](CC(=O)O)C(=O)N[C@@H](CCC(N)=O)C(=O)N[C@@H](Cc2c[nH]cn2)C(=O)N2CCC[C@H]2C(=O)N[C@@H](CO)C(=O)N[C@@H](CO)C(=O)NCC(=O)N[C@@H](CCC(N)=O)C(=O)N2CCC[C@H]2C(=O)N2CCC[C@H]2C(=O)N2CCC[C@H]2C(=O)N[C@@H](CO)C(N)=O)C(C)C)NC(=O)[C@H](C)NC(=O)[C@H](C)NC(=O)[C@H](CCCCN)NC1=O
B1: in the assay with human GLP-1 receptor, the “In vitro Activity Compared to Native Peptide (%) vs. GLP-1 (relative titer from cAMP EC50)” value was 5.52 % of human GLP-1. Besides, the “In vitro Activity Compared to Native Peptide (%) vs. Glucagon (relative titer from cAMP EC50)” value with human GCG receptor was 0.4 % of human GCG. Also, the “In vitro Activity Compared to Native Peptide (%) vs. GIP (relative titer from cAMP EC50)” value in the assay with human GIP receptor is 7.04 % of human GIP.

B2: triple agonist of SEQ ID NO: 9 (peptide)
peptide: Y[Aib]QGTFTSDYSK([AEEA-AEEA-γGlu-C18 diacid])YLDEKAAKEFVQWLLDHHPSSGQPPPS-NH2
modifications: lactam 16-20; N-terminus assumed
SMILES: CC(C)C[C@H](NC(=O)[C@H](Cc1ccc(O)cc1)NC(=O)[C@H](CCCCNC(=O)COCCOCCNC(=O)COCCOCCNC(=O)CC[C@H](NC(=O)CCCCCCCCCCCCCCCCC(=O)O)C(=O)O)NC(=O)[C@H](CO)NC(=O)[C@H](Cc1ccc(O)cc1)NC(=O)[C@H](CC(=O)O)NC(=O)[C@H](CO)NC(=O)[C@@H](NC(=O)[C@H](Cc1ccccc1)NC(=O)[C@@H](NC(=O)CNC(=O)[C@H](CCC(N)=O)NC(=O)C(C)(C)NC(=O)[C@@H](N)Cc1ccc(O)cc1)[C@@H](C)O)[C@@H](C)O)C(=O)N[C@@H](CC(=O)O)C(=O)N[C@H]1CCC(=O)NCCCC[C@@H](C(=O)N[C@@H](CCC(=O)O)C(=O)N[C@@H](Cc2ccccc2)C(=O)N[C@H](C(=O)N[C@@H](CCC(N)=O)C(=O)N[C@@H](Cc2c[nH]c3ccccc23)C(=O)N[C@@H](CC(C)C)C(=O)N[C@@H](CC(C)C)C(=O)N[C@@H](CC(=O)O)C(=O)N[C@@H](Cc2c[nH]cn2)C(=O)N[C@@H](Cc2c[nH]cn2)C(=O)N2CCC[C@H]2C(=O)N[C@@H](CO)C(=O)N[C@@H](CO)C(=O)NCC(=O)N[C@@H](CCC(N)=O)C(=O)N2CCC[C@H]2C(=O)N2CCC[C@H]2C(=O)N2CCC[C@H]2C(=O)N[C@@H](CO)C(N)=O)C(C)C)NC(=O)[C@H](C)NC(=O)[C@H](C)NC(=O)[C@H](CCCCN)NC1=O
Consider B2, for which the “In vitro Activity Compared to Native Peptide (%) vs. GLP-1 (relative titer from cAMP EC50)” value in the assay with human GLP-1 receptor was 15 % of human GLP-1. Moreover, the “In vitro Activity Compared to Native Peptide (%) vs. Glucagon (relative titer from cAMP EC50)” value with human GCG receptor was 0.51 % of human GCG. Moreover, the “In vitro Activity Compared to Native Peptide (%) vs. GIP (relative titer from cAMP EC50)” value in the assay with human GIP receptor is 8.42 % of human GIP.

B3: triple agonist of SEQ ID NO: 2 (peptide)
peptide: Y[Aib]QGTFTSDYSK([AEEA-AEEA-γGlu-C20 diacid])YLDEKRAKEFVQWLLDHHPSSGQPPPS-NH2
modifications: lactam 16-20; N-terminus assumed
SMILES: CC(C)C[C@H](NC(=O)[C@H](Cc1ccc(O)cc1)NC(=O)[C@H](CCCCNC(=O)COCCOCCNC(=O)COCCOCCNC(=O)CC[C@H](NC(=O)CCCCCCCCCCCCCCCCCCC(=O)O)C(=O)O)NC(=O)[C@H](CO)NC(=O)[C@H](Cc1ccc(O)cc1)NC(=O)[C@H](CC(=O)O)NC(=O)[C@H](CO)NC(=O)[C@@H](NC(=O)[C@H](Cc1ccccc1)NC(=O)[C@@H](NC(=O)CNC(=O)[C@H](CCC(N)=O)NC(=O)C(C)(C)NC(=O)[C@@H](N)Cc1ccc(O)cc1)[C@@H](C)O)[C@@H](C)O)C(=O)N[C@@H](CC(=O)O)C(=O)N[C@H]1CCC(=O)NCCCC[C@@H](C(=O)N[C@@H](CCC(=O)O)C(=O)N[C@@H](Cc2ccccc2)C(=O)N[C@H](C(=O)N[C@@H](CCC(N)=O)C(=O)N[C@@H](Cc2c[nH]c3ccccc23)C(=O)N[C@@H](CC(C)C)C(=O)N[C@@H](CC(C)C)C(=O)N[C@@H](CC(=O)O)C(=O)N[C@@H](Cc2c[nH]cn2)C(=O)N[C@@H](Cc2c[nH]cn2)C(=O)N2CCC[C@H]2C(=O)N[C@@H](CO)C(=O)N[C@@H](CO)C(=O)NCC(=O)N[C@@H](CCC(N)=O)C(=O)N2CCC[C@H]2C(=O)N2CCC[C@H]2C(=O)N2CCC[C@H]2C(=O)N[C@@H](CO)C(N)=O)C(C)C)NC(=O)[C@H](C)NC(=O)[C@H](CCCNC(=N)N)NC(=O)[C@H](CCCCN)NC1=O
For the molecule B3, the “In vitro Activity Compared to Native Peptide (%) vs. GLP-1 (relative titer from cAMP EC50)” value in the assay with human GLP-1 receptor is 3.87 % of human GLP-1. Further, in the assay with human GCG receptor, the “In vitro Activity Compared to Native Peptide (%) vs. Glucagon (relative titer from cAMP EC50)” value was 3.35 % of human GCG. Moreover, in the assay with human GIP receptor, the “In vitro Activity Compared to Native Peptide (%) vs. GIP (relative titer from cAMP EC50)” value is 2.17 % of human GIP.

B4: triple agonist of SEQ ID NO: 8 (peptide)
peptide: Y[Aib]QGTFTSDYSK([AEEA-AEEA-γGlu-C18 diacid])YLDEKRAKEFVQWLLDHHPSSGQPPPS-NH2
modifications: lactam 16-20; N-terminus assumed
SMILES: CC(C)C[C@H](NC(=O)[C@H](Cc1ccc(O)cc1)NC(=O)[C@H](CCCCNC(=O)COCCOCCNC(=O)COCCOCCNC(=O)CC[C@H](NC(=O)CCCCCCCCCCCCCCCCC(=O)O)C(=O)O)NC(=O)[C@H](CO)NC(=O)[C@H](Cc1ccc(O)cc1)NC(=O)[C@H](CC(=O)O)NC(=O)[C@H](CO)NC(=O)[C@@H](NC(=O)[C@H](Cc1ccccc1)NC(=O)[C@@H](NC(=O)CNC(=O)[C@H](CCC(N)=O)NC(=O)C(C)(C)NC(=O)[C@@H](N)Cc1ccc(O)cc1)[C@@H](C)O)[C@@H](C)O)C(=O)N[C@@H](CC(=O)O)C(=O)N[C@H]1CCC(=O)NCCCC[C@@H](C(=O)N[C@@H](CCC(=O)O)C(=O)N[C@@H](Cc2ccccc2)C(=O)N[C@H](C(=O)N[C@@H](CCC(N)=O)C(=O)N[C@@H](Cc2c[nH]c3ccccc23)C(=O)N[C@@H](CC(C)C)C(=O)N[C@@H](CC(C)C)C(=O)N[C@@H](CC(=O)O)C(=O)N[C@@H](Cc2c[nH]cn2)C(=O)N[C@@H](Cc2c[nH]cn2)C(=O)N2CCC[C@H]2C(=O)N[C@@H](CO)C(=O)N[C@@H](CO)C(=O)NCC(=O)N[C@@H](CCC(N)=O)C(=O)N2CCC[C@H]2C(=O)N2CCC[C@H]2C(=O)N2CCC[C@H]2C(=O)N[C@@H](CO)C(N)=O)C(C)C)NC(=O)[C@H](C)NC(=O)[C@H](CCCNC(=N)N)NC(=O)[C@H](CCCCN)NC1=O
B4: in the assay with human GLP-1 receptor, the “In vitro Activity Compared to Native Peptide (%) vs. GLP-1 (relative titer from cAMP EC50)” value was 9.68 % of human GLP-1. Moreover, the “In vitro Activity Compared to Native Peptide (%) vs. Glucagon (relative titer from cAMP EC50)” value in the assay with human GCG receptor was 5.89 % of human GCG. The “In vitro Activity Compared to Native Peptide (%) vs. GIP (relative titer from cAMP EC50)” value with human GIP receptor is 4.89 % of human GIP.
